16 molecules from US20200255503A1 (Regeneron, published 2020) can be followed below.

The test addresses T1, Fel d1 (B-A)-mmH (cat (Felis domesticus)).
T1 construct: Expressed in CHO cells; also called rFel d1.mmH; rFel d1-mmH
Put plainly: SPR, mAb captured, Fel d1 (B-A)-mmH injected, 25 C.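 Note: rate constants obtained by fitting sensorgrams to a one-to-one binding model, Kd computed as koff over kon, half-life derived from koff.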

T1 sequence (chain, as listed by the source limits assumed): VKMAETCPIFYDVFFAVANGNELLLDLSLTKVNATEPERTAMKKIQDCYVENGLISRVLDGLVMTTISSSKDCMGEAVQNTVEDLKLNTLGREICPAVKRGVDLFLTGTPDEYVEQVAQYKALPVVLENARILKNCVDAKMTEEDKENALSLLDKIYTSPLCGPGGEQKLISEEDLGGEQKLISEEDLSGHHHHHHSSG
Method: Antibody-antigen association was monitored for 3 to 5 minutes, and the dissociation of antigen from the captured monoclonal antibody (in running buffer alone at 25° C.) was monitored for 10 or 15 minutes. Kinetic association (kₐ) and dissociation (kₐ) rate constants were determined by processing and fitting the data to a 1:1 binding model using Scrubber 2.0 curve fitting software. Binding dissociation equilibrium constants (KD) and dissociative half-lives (t_{1/2}) were calculated from the kinetic rate constants as: KD=kd/kₐ and t_{1/2}=ln(2)/kₐ.

B1: H1M1230N (antibody, V domains shown)
VH: EVQLVESGGGLVQPGGSLRLSCTASGFIFSNFWMTWVRQAPGKGLEWVANIKQDGSETYCVDSVKGRFTISRDHAKNSLFLQMNSLRAEDTAVYYCARGAGTIYYYGMDVWGQGTTVIVSS
VL: DIQMTQSPSSVSASVGDRLTITCRASQDISSWLTWYQQKPGKAPNLLIYAASGLQSGVPSRFSGSGSGTDFTLTISNLQPEDFATYYCQQANSFPLTFGQGTRLEIK
notes: chimeric, human variable domains with mouse Fc (prefix H1M)
For the molecule B1, the Kd (as a rule, the free concentration of one partner at which half of the binding sites on the other are occupied at equilibrium, for simple one-to-one binding) was found to be 1310 pM; the koff (commonly a measure of how fast the partners let go of each other) is 0.00051 s⁻¹; the kon – broadly, a measure of how fast the partners come together – was determined as 388000 M⁻¹ s⁻¹; the t1/2 was determined as 23 min.

B2: H4H1616N (antibody, human IgG4, V domains shown)
VH: EVELLESGGGLVQPGGSLRLSCAASGFTFSSYAMSWVRQAPGKGLEWVSSISGRVGSTHFADSVKGRFTFSRDNSKNTLYLQLSSLRAEDTAVYYCARSRGAAYFDYWGQGTLVTVSS
VL: DIQMTQSPSSLSASVGDRVTITCQANQDISNFLNWYQQRPGKAPNLLIYAASNLETGVPSRFSGSGSGTDFTFTISSLQPEDIATYYCQHYDNFPFTFGPGTKVDIK
notes: human IgG4 Fc (prefix H4H)
For the molecule B2, the Kd was determined as 8210 pM, the koff worked out at 0.00188 s⁻¹, the on-rate (kon) turned out to be 229000 M⁻¹ s⁻¹ and the t1/2 turned out to be 6 min.

B3: H4H2636B (antibody, human IgG4, V domains shown)
VH: EVQLVESGGGLVQPGGSLRLSCAASGFTFSSYAMSWVRQAPGKGLEWVSAISGRGYNADYADSVKGRFTISRDNSKNTLYLQMNSLRAEDTAVYYCAKLEYFDYWGQGTTVTVSS
VL: DIQLTQSPSTLSASVGDRVTITCRASQSISSWLAWYQQKPGKAPKLLIYKASSLESGVPSRFSGSGSGTDFTLTISSLRPEDFATYYCQQYNSYPLTFGGGTKVEIKR
notes: human IgG4 Fc (prefix H4H)
In turn, B3 had a Kd of 924 pM, a koff of 0.000228 s⁻¹, a kon of 247000 M⁻¹ s⁻¹ and a t1/2 of 51 min.

B4: H4H2864P (antibody, human IgG4, V domains shown)
VH: EVQLVESGGGLAQPGGSLRLSCAASGFTFNNYAMTWVRQAPGKGLDWVSAISDSGRSTFSADSVKGRFTISRDNSKNTLYLQMDSLRAEDTALYYCAKHRNWNYPVFDYWGQGTLVTVSS
VL: DIQLTQSPSFLSASVGDRVTITCWASQGISSYLAWYQQKPGKAPKLLIYSASTLQSGVPSRFSGSGSGTEFTLTISSLQPEDFATYYCQQLNSYPFTFGPGTKVDIK
notes: human IgG4 Fc (prefix H4H)
For B4, the dissociation constant Kd was found to be 576 pM, the koff was determined as 0.000309 s⁻¹, the on-rate constant (kon) stood at 537000 M⁻¹ s⁻¹ and the t1/2 was 37 min.

B5: H2M1233N (antibody, mouse IgG2, V domains shown)
VH: QVVLVESGGGVVQPGRSLRLSCAASGFTFSSYGMHWVRQAPGKGLEWVAVIWYDGSNKYYVDSVKGRFTISRDNSNNTIYLQMNSLRAEDTAVYYCARSLIPVAGTDPIFGYWGQGTLVTVSS
VL: DIQMTQSPSTLSASVGDRVTITCRASQSVSSWLAWYQQKPGKAPKLLIFKASGLESGVPFRFSGSGSGTEFTLTISSLQPDDFATYYCQQYNTYSPTFGQGTKVEIK
notes: chimeric, human variable domains with mouse IgG2 Fc (prefix H2M)
Molecule B5 gave a Kd of 544 pM, a dissociation rate constant (koff) of 0.000166 s⁻¹, a kon of 305000 M⁻¹ s⁻¹ and a t1/2 of 70 min.

B6: H2M1242N (antibody, mouse IgG2, V domains shown)
VH: EVQLVESGGGLVRPGGSLRLSCAASGFTFTSYAMNWVRQAPGKGLEWVSSISSYSSYIYIADSVKGRFTLSRDNAKNSLYLQMHSLRPEDTAVYFCAREGYSAYSYFDFWGRGTLVTVSS
VL: DIQMTQSPSTLSASVGDRVTITCRASQSVISWLAWYQQKPGKAPKLLIHRASSLESGVPSRFSGSGSGTEFTLTISGLQPDDFATYYCQQYNTYFPTFGQGTKVEVK
notes: as for B5
B6 gave a Kd of 449 pM, a koff of 0.000122 s⁻¹, an association rate constant (kon) of 272000 M⁻¹ s⁻¹ and a t1/2 of 94 min.

B7: H2M1237N (antibody, mouse IgG2, V domains shown)
VH: QVVLVESGGGVVQPGRSLRLSCAASGFTFSSYGMHWVRQAPGKGLEWVAVIWYDGSIKYYADSVKGRFTISRDNSNNTIYLQMNSLRAEDTAVYYCARALIPVAGTDPIFGYWGQGTLVTVSS
VL: DIQMTQSPSTLSASVGDRVTITCRASQSVSSWLAWYQQKPGKAPKLLIFKTSGLESGVPFRFSGSGSGTEFTLTISSLQPDDFATYYCQQYNTYSPTFGQGTKVEIK
notes: as for B5
On to B7, for which binding was characterised by a dissociation constant (Kd) of 458 pM, the koff is 0.000165 s⁻¹, the on-rate constant (kon) amounted to 359000 M⁻¹ s⁻¹ and the t1/2 is 70 min.

B8: H4H2597B (antibody, human IgG4, V domains shown)
VH: EVQLVESGGGLVQPGGSLRLSCAVSGFTFSNYAMNWVRQAPGKGLEWVSVISDSGRSTYYADSVKGRFTISRDNSKNTLYLQMNSLRAEDTAVYFCAKRYNWNLHYFDYWGQGTTVTVSS
VL: EIVLTQSPDFQSVTPKEKVTITCRASQSIGGSLHWYQQKPDQSPKLLIKYASQSFSGVPSRFSGSGSGTDFTLTINSLEAEDAATYYCLQSSSLRTFGQGTKVEIKR
notes: human IgG4 Fc (prefix H4H)
B8 returned a Kd of 501 pM, a koff of 0.000558 s⁻¹, an on-rate (kon) of 1.12e+06 M⁻¹ s⁻¹ and a t1/2 of 21 min.

B9: H4H2606B (antibody, human IgG4, V domains shown)
VH: EVQLVESGGGLVKPGGSLRLSCAASGFTFSDYYMNWIRQAPGKGLEWVSYISSSGNSIYYADSVKGRFTISRDNAKNSLFLQMSSLRAEDTAVYYCARDGRYNDRRRGYYWGQGTLVTVSS
VL: EIVMTQSPDFQSVTPKEKVTITCRASQSIGSSLHWYQQKPDQSPKLLIKYASQSFSGVPSRFSGSGSGTDFTLTINSLEAEDAATYYCLQSSSLRTFGQGTKVEIKR
notes: human IgG4 Fc (prefix H4H)
As for B9, the Kd turned out to be 388 pM, the off-rate constant (koff) stood at 0.000486 s⁻¹, the association rate constant (kon) worked out at 1.26e+06 M⁻¹ s⁻¹ and the t1/2 was 24 min.

B10: H4H2797P (antibody, human IgG4, V domains shown)
VH: QVQLVESGGGVVLPGRSLRLSCAASGFTFSSYLMYWVRQAPGKGLEWVAVIWYDGSNKFYGDSVKGRFTISRDNSKNTLYLQMNSLRAEDTAVYYCARDNGNSGYEDSWNAFDIWGQGTMVTVSS
VL: DIQMTQSPSSLSASVGDRVTITCRASQDIYNYLAWFQQKPGKAPKSLIYAASSLQTGVPSQFSGSGSGTDFTLTISSLQPEDFATYYCQQYNNYPFTFGPGTKVDIK
notes: human IgG4 Fc (prefix H4H)
On to B10, for which binding was put at a Kd of 4690 pM, the koff worked out at 0.00205 s⁻¹, the kon was 437000 M⁻¹ s⁻¹ and the t1/2 worked out at 6 min.

B11: H4H2645P (antibody, human IgG4, V domains shown)
VH: EVQLVESGGGLVQPGGSLRLSCAASGFTFSTYAMHWVRQAPGKGLEWVSSISGRGRNSDHADSVKGRFTISRDNSKNTLYLQMNSLRAEDTAVYYCARTEYFHHWGQGTLVTVSS
VL: DIQMTQSPSSLSASVGDRITITCRASQDINNYLAWFQQKPGKAPKSLIYGASSLQSGVPSKFSGSGSGTDFTLTISSLQPEDFATYYCQQYSSYPFTFGPGTKVDIK
notes: human IgG4 Fc (prefix H4H)
Molecule B11 yielded a dissociation constant (Kd) of 368 pM, an off-rate (koff) of 0.000179 s⁻¹, a kon of 487000 M⁻¹ s⁻¹ and a t1/2 of 65 min.

B12: H4H2594S (antibody, human IgG4, V domains shown)
VH: EVQLVESGGGLVKPGGSLRLSCAASGFTFSDYYMNWIRQAPGKGLEWVSYISSSGSSIYYADSVKGRFTISRDNAKNSLYLLMNSLRAEDTAVYYCARDGKYNSSPGDYWGQGTLVTVSS
VL: DIQMTQSPSSLSASVGDRVTIACRASQGISNYLAWFQQKPGKAPKSLIYAASSLQSGVPSKFSGSGSGTDFTLTISSLQPEDFATYYCQQYNSYPLTFGGGTKVEIKR
notes: human IgG4 Fc (prefix H4H)
Turning to B12, binding was put at a Kd of 402 pM, the koff worked out at 0.000521 s⁻¹, the kon came to 1.3e+06 M⁻¹ s⁻¹ and the t1/2 amounted to 22 min.

B13: H4H2607B (antibody, human IgG4, V domains shown)
VH: EVQLVESGGGLVKPGGSLRLSCAASGFTFSDYYMNWIRQAPGKGLEWISYLSSSGSATYYADSVKGRFTISRDNAKNSLYLQMNSLRAEDTAVYYCARDGKYNTVAGDYWGQGTTVTVSS
VL: DIQLTQSPSSLSASVGDRVTITCRASQGIRNDLGWYQQKPGKAPKRLIYAASSLQSGVPSRFSGSGSGTEFTLTISSLQPEDFATYYCLQHNSYPYTFGQGTKVEIKR
notes: human IgG4 Fc (prefix H4H)
Molecule B13 came in with a Kd of 364 pM, a dissociation rate constant (koff) of 0.000563 s⁻¹, a kon of 1.55e+06 M⁻¹ s⁻¹ and a t1/2 of 21 min.

B14: H1M1241N (antibody, V domains shown)
VH: EVQLVESGGGLVKPGGSLRLSCAASGFTFSSYSMNWVRQAPGKGLEWVSSISSRSSYIYYADSVKGRFTISRDNAKNSLYLQMNSLRAEDTAVYYCARDHIVVVPGASYYYYGMDVWGQGTTVTVSS
VL: DIQMTQSPSSLSASVGDRVTITCRASQGIRNDLGWYQQKPGKAPKRLISAASSLQSGVPSRFSGSGSGTEFTLTISSLQPEDFATYYCLQHNSYPLTFGGGTKVEIK
notes: as for B1
B14 gave a Kd of 331 pM, a koff of 0.000112 s⁻¹, a kon of 337000 M⁻¹ s⁻¹ and a t1/2 of 104 min.

B15: H2M1236N (antibody, mouse IgG2, V domains shown)
VH: QVQLQESGPGLVKPSETLSLTCTVSGGSISNYYWSWIRQPPGKGLEWIGYIYYSGRTNYNPSLKSRVTISVDTSKNQFSLKLRSVTAADTAVYYCARHRITRTADSFDYWGQGTLVTVSS
VL: DIQMTQSPSSLSASVGDRVTITCQASQDITNYLNWYQQKPGKAPKLLIYDASNLETGVPSRFSGSGSGTDFTFTISSLQPEDVATFYCHQYGDLPYTFGQGTKLEIK
notes: as for B5
B15 registered a Kd of 558 pM, a koff of 0.000232 s⁻¹, a kon of 415000 M⁻¹ s⁻¹ and a t1/2 of 50 min.

B16: H1M1234N (antibody, V domains shown)
VH: QVQLQQSGPGLVKSSQTLSLTCAISGDSVSSNSVAWNWIRQSPSRGLEWLGRTYYRSKWYNDYAVSVKSRININPDTSKNHFSLQLNSVTPEDTAVYFCARAWNWYYLDYWGQGTLVTVSS
VL: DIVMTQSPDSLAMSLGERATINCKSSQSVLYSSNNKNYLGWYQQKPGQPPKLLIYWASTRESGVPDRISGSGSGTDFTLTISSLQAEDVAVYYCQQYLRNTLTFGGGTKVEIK
notes: as for B1
Molecule B16 had a Kd of 5580 pM, a koff of 0.00142 s⁻¹, an on-rate constant (kon) of 254000 M⁻¹ s⁻¹ and a t1/2 of 8 min.
